Results on seven molecules are retold here after patent US20150017095A1 (AbbVie / Abbott, published 2015).

In experiment [1] the target is T1, murine TNFα (murine, UniProt P06804 80-235).
T1 sequence (looked up): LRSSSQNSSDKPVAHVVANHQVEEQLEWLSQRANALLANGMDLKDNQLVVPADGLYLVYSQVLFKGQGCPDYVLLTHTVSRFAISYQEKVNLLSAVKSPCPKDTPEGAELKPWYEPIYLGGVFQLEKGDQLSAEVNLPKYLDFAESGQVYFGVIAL
The experiment in a line: cell-based or functional assay.

For experiment [2], the target named is T1, murine TNFα. The experiment in a line: ELISA, TNFα binding activity (Example 2.2.3.3). Background: ELISA stands for enzyme-linked immunosorbent assay.
The target of experiment [3] is Recombinant Human IL-15 (human, UniProt P40933 49-162). The experiment in a line: BIACORE SPR, DVD-Ig captured, antigen in flow (N-terminal VD). As for the experimental part:
(§1) The BIACORE assay (Biacore, Inc, Piscataway, N.J.) determines the affinity of antibodies or DVD-Ig with kinetic measurements of on-rate and off-rate constants. […] All chemicals are obtained from Biacore® AB (Uppsala, Sweden) or otherwise from a different source as described in the text. For example, approximately 5000 RU of goat anti-mouse IgG, (Fcγ), fragment specific polyclonal antibody (Pierce Biotechnology Inc, Rockford, Ill.) diluted in 10 mM sodium acetate (pH 4.5) is directly immobilized across a CM5 research grade biosensor chip using a standard amine coupling kit according to manufacturer's instructions and procedures at 25 μg/ml. Unreacted moieties on the biosensor surface are blocked with ethanolamine. Modified carboxymethyl dextran surface in flowcell 2 and 4 is used as a reaction surface. Unmodified carboxymethyl dextran without goat anti-mouse IgG in flow cell 1 and 3 is used as the reference surface. For kinetic analysis, rate equations derived from the 1:1 Langmuir binding model are fitted simultaneously to association and dissociation phases of all eight injections (using global fit analysis) with the use of Biaevaluation 4.0.1 software. Purified antibodies or DVD-Ig are diluted in HEPES-buffered saline for capture across goat anti-mouse IgG specific reaction surfaces. Antibodies or DVD-Ig to be captured as a ligand (25 μg/m) are injected over reaction matrices at a flow rate of 5 μl/min. The association and dissociation rate constants, kₒₙ (M⁻¹s⁻¹) and koff (s⁻¹) are determined under a continuous flow rate of 25 μl/min. Rate constants are derived by making kinetic binding measurements at different antigen concentrations ranging from 10-200 nM. The equilibrium dissociation constant (M) of the reaction between antibodies or DVD-Igs and the target antigen is then calculated from the kinetic rate constants by the following formula: KD=koff/kₒₙ. Binding is recorded as a function of time and kinetic rate constants are calculated.
A general note: Surface plasmon resonance follows binding to a sensor surface in real time, without labels.

Experiment [4] has as its target T2, Recombinant Human IL-6 sR (human, UniProt P08887 20-358).
T2 construct: domain: IL-6 sR; Bought reagent; also called IL-6R
T2 sequence (looked up): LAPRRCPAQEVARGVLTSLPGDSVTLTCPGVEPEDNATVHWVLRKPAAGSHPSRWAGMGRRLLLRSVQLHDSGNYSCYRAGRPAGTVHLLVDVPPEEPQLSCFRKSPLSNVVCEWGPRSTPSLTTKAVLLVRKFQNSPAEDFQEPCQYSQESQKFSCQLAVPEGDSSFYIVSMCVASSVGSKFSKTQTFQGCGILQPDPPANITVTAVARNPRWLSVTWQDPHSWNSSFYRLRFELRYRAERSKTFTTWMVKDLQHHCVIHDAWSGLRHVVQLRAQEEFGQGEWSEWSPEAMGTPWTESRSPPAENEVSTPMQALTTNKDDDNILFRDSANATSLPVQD
Description: direct bind ELISA, antigen coated on plate. As for the experimental part: (§2) Enzyme Linked Immunosorbent Assays to screen for antibodies that bind a desired target antigen were performed as follows. High bind ELISA plates (Corning Costar #3369, Acton, Mass.) were coated with 100 μL/well of 10 μg/ml of desired target antigen (R&D Systems, Minneapolis, Minn.) or desired target antigen extra-cellular domain/FC fusion protein (R&D Systems, Minneapolis, Minn.) or monoclonal mouse anti-polyHistidine antibody (R&D Systems # MAB050, Minneapolis, Minn.) in phosphate buffered saline (10×PBS, Abbott Bioresearch Center, Media Prep# MPS-073, Worcester, Mass.) overnight at 4° C. Plates were washed four times with PBS containing 0.02% Tween 20. Plates were blocked by the addition of 300 μL/well blocking solution (non-fat dry milk powder, various retail suppliers, diluted to 2% in PBS) for ½ hour at room temperature. Plates were washed four times after blocking with PBS containing 0.02% Tween 20.
(§3) Plates were washed 4 times with PBS containing 0.02% Tween 20.
(§4) One hundred microliters of enhanced TMB solution (Neogen Corp. #308177, K Blue, Lexington, Ky.) was added to each well and incubated for 10 minutes at room temperature. The reaction was stopped by the addition of 50 μL 1N sulphuric acid.

Experiment [5] deals with T2, Recombinant Human IL-6 sR. The experiment in a line: BIACORE SPR, antibody captured, antigen in flow. As for the experimental part:
as §1

Experiment [6] concerns the target T2, Recombinant Human IL-6 sR. Description: direct bind ELISA, antigen coated on plate (C-terminal VD). As for the experimental part: as §2, §3, §4
Experiment [7] concerns the target T2, Recombinant Human IL-6 sR. Description: BIACORE SPR, DVD-Ig captured, antigen in flow (C-terminal VD). As for the experimental part:
as §1

Experiment [8] deals with Recombinant Human β-NGF (human, UniProt P01138 122-239, limits assumed). The experiment in a line: BIACORE SPR, DVD-Ig captured, antigen in flow (C-terminal VD); BIACORE, DVD-Ig captured, NGF in flow, 25 C; C-terminal VD. How it is done: as §1
Recombinant Human β-NGF, sequence (P01138 122-239 limits assumed): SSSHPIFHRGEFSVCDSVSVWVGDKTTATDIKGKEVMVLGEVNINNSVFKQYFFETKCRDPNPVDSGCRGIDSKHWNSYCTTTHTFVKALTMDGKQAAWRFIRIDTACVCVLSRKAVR

Recombinant Human IL-15, sequence (P40933 49-162 limits assumed): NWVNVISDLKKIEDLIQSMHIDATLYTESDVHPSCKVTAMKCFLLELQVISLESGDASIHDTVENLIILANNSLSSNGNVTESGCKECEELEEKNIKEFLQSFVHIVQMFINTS

B1: anti-TNFα monoclonal antibody clone 8C11 (antibody, V domains shown)
VH: EFQLQQSGPELVKPGASVRISCKASGYSFTDYNMNWVKQSNGKSLEWVGVINPNYGSSTYNQKFKGKATLTVDQSSSTAYMQLNSLTSEDSAVYYCARKWGQLGRGFFDVWGTGTTVTVSS
VL: QIVLSQSPAILSASPGEKVTMTCRASSSVSYMHWFQQKPGSSPKPWIYATSNLASGVPARFSGSGSGTSYSLTISRVEAEDAATYYCQQWSSSPLTFGAGTKLELKR
notes: Murine hybridoma antibody against murine TNFα; also called 8C11-1E10; anti-mouse TNF monoclonal antibody
In the case of B1, the “IC50, L929 assay (TNFα-induced cell death)” value (from here on “IC50, L929 assay”) in experiment [1] came out at 5.85 nM. The IC50 (as a rule, the point on the concentration scale where inhibition reaches its midpoint) in experiment [2] was found to be 0.201 nM.

B2: DVD154 (IL-15 / PGE2 DVD-Ig) (bispecific antibody)
VH: EVQLVQSGAEVKKPGESLKISCKVSGYFFTTYWIGWVRQMPGKGLEYMGIIYPGDSDTRYSPSFQGQVTISADKSISTAYLQWSSLKASDTAMYYCARGGNWNCFDYWGQGTLVTVSSASTKGPEVQLVQSGAEVKKPGASVKVSCKASGYTFTKYWLGWVRQAPGQGLEWMGDIYPGYDYTHYNEKFKDRVTLTTDTSTSTAYMELRSLRSDDTAVYYCARSDGSSTYWGQGTLVTVSS
VL: EIVLTQSPGTLSLSPGERATLSCRASQSVSSSYLAWYQQKPGQAPRLLIYGASRRATGIPDRFSGSGSGTDFTLTISRLEPEDFAVYYCQRYGSSHTFGQGTKLEISRTVAAPDVLMTQTPLSLPVTPGEPASISCTSSQNIVHSNGNTYLEWYLQKPGQSPQLLIYKVSNRFSGVPDRFSGSGSGTDFTLKISRVEAEDVGVYYCFQVSHVPYTFGGGTKVEIKR
notes: Outer domain is AB049 (IL-15), inner domain is AB048 (PGE2); also called VD154H; VD154L
In the case of B2, in experiment [3], the Kd (as a rule, a measure of binding affinity in units of concentration) turned out to be 4.89 nM; the koff (as a rule, a measure of how fast the partners let go of each other) stood at 0.00198 s⁻¹; the kon (commonly the rate constant with which the complex forms) amounted to 404000 M⁻¹ s⁻¹.

B3: 2B5-hLL-8C11 anti-murine TNFα/anti-PGE2 DVD-Ig with human long linker (bispecific antibody, human IgG1)
VH: QVQLQQSGPELVRPGSSVKISCKASGYTFTKYWLGWVKQRPGHGLEWIGDIYPGYDYTHYNEKFKDKATLTVDTSSSTAYMQLSSLTSEDSAIYYCARSDGSSTYWGQGTLVTVSAASTKGPSVFPLAPEFQLQQSGPELVKPGASVRISCKASGYSFTDYNMNWVKQSNGKSLEWVGVINPNYGSSTYNQKFKGKATLTVDQSSSTAYMQLNSLTSEDSAVYYCARKWGQLGRGFFDVWGTGTTVTVSS
VL: DVLMTQTPLSLPVSLGDQASISCTSSQNIVHSNGNTYLEWYLQRPGQSPKLLIYKVSNRFSGVPDRFSGSGSGTVFTLKISRVEAEDLGVYYCFQVSHVPYTFGGGTKLEIKRTVAAPSVFIFPPQIVLSQSPAILSASPGEKVTMTCRASSSVSYMHWFQQKPGSSPKPWIYATSNLASGVPARFSGSGSGTSYSLTISRVEAEDAATYYCQQWSSSPLTFGAGTKLELKR
notes: DVD-Ig; Outer domain is 2B5 (PGE2), inner domain is 8C11 (murine TNFα)
On to B3, for which the “IC50, L929 assay” value in experiment [1] came out at 0.088 nM. In experiment [2], this molecule returned an IC50 of 0.256 nM.

B4: AB054 anti-IL-6R parent antibody (antibody, human IgG1, V domains shown)
VH: EVQLQESGPGLVRPSQTLSLTCTVSGYSITSDHAWSWVRQPPGRGLEWIGYISYSGITTYNPSLKSRVTMLRDTSKNQFSLRLSSVTAADTAVYYCARSLARTTAMDYWGQGSLVTVSS
VL: DIQMTQSPSSLSASVGDRVTITCRASQDISSYLNWYQQKPGKAPKLLIYYTSRLHSGVPSRFSGSGSGTDFTFTISSLQPEDIATYYCQQGNTLPYTFGQGTKVEIKR
Turning to B4, the EC50 (usually the concentration at which the effect is half-maximal) in experiment [4] was determined as 1.75 nM. In experiment [5], the Kd is 0.448 nM, the koff amounted to 0.00016 s⁻¹ and the kon stood at 357000 M⁻¹ s⁻¹.

B5: 2B5-hSL-8C11 anti-murine TNFα/anti-PGE2 DVD-Ig with human short linker (bispecific antibody)
VH: QVQLQQSGPELVRPGSSVKISCKASGYTFTKYWLGWVKQRPGHGLEWIGDIYPGYDYTHYNEKFKDKATLTVDTSSSTAYMQLSSLTSEDSAIYYCARSDGSSTYWGQGTLVTVSAASTKGPEFQLQQSGPELVKPGASVRISCKASGYSFTDYNMNWVKQSNGKSLEWVGVINPNYGSSTYNQKFKGKATLTVDQSSSTAYMQLNSLTSEDSAVYYCARKWGQLGRGFFDVWGTGTTVTVSS
VL: DVLMTQTPLSLPVSLGDQASISCTSSQNIVHSNGNTYLEWYLQRPGQSPKLLIYKVSNRFSGVPDRFSGSGSGTVFTLKISRVEAEDLGVYYCFQVSHVPYTFGGGTKLEIKRTVAAPQIVLSQSPAILSASPGEKVTMTCRASSSVSYMHWFQQKPGSSPKPWIYATSNLASGVPARFSGSGSGTSYSLTISRVEAEDAATYYCQQWSSSPLTFGAGTKLELKR
notes: DVD-Ig; Outer domain is 2B5 (PGE2), inner domain is 8C11 (murine TNFα); also called 2B5-huSL-8C11
As to B5, the “IC50, L929 assay” value in experiment [1] was 4.39 nM. In experiment [2], this molecule showed an IC50 of 0.234 nM.

B6: DVD151 (PGE2 / IL-6R DVD-Ig) (bispecific antibody, human IgG1)
VH: EVQLVQSGAEVKKPGASVKVSCKASGYTFTKYWLGWVRQAPGQGLEWMGDIYPGYDYTHYNEKFKDRVTLTTDTSTSTAYMELRSLRSDDTAVYYCARSDGSSTYWGQGTLVTVSSASTKGPEVQLQESGPGLVRPSQTLSLTCTVSGYSITSDHAWSWVRQPPGRGLEWIGYISYSGITTYNPSLKSRVTMLRDTSKNQFSLRLSSVTAADTAVYYCARSLARTTAMDYWGQGSLVTVSS
VL: DVLMTQTPLSLPVTPGEPASISCTSSQNIVHSNGNTYLEWYLQKPGQSPQLLIYKVSNRFSGVPDRFSGSGSGTDFTLKISRVEAEDVGVYYCFQVSHVPYTFGGGTKVEIKRTVAAPDIQMTQSPSSLSASVGDRVTITCRASQDISSYLNWYQQKPGKAPKLLIYYTSRLHSGVPSRFSGSGSGTDFTFTISSLQPEDIATYYCQQGNTLPYTFGQGTKVEIKR
notes: Outer domain is AB048 (PGE2), inner domain is AB054 (IL-6R); also called VD151H; VD151L
In the case of B6, the EC50 in experiment [6] amounted to 26500 nM. Moreover, in experiment [7], the Kd stood at 5.94 nM, the koff is 0.00015 s⁻¹ and the kon was 25300 M⁻¹ s⁻¹.

B7: DVD163 (PGE2 / NGF DVD-Ig) (bispecific antibody)
VH: EVQLVQSGAEVKKPGASVKVSCKASGYTFTKYWLGWVRQAPGQGLEWMGDIYPGYDYTHYNEKFKDRVTLTTDTSTSTAYMELRSLRSDDTAVYYCARSDGSSTYWGQGTLVTVSSASTKGPQVQLQESGPGLVKPSETLSLTCTVSGFSLIGYDLNWIRQPPGKGLEWIGIIWGDGTTDYNSAVKSRVTISKDTSKNQFSLKLSSVTAADTAVYYCARGGYWYATSYYFDYWGQGTLVTVSS
VL: DVLMTQTPLSLPVTPGEPASISCTSSQNIVHSNGNTYLEWYLQKPGQSPQLLIYKVSNRFSGVPDRFSGSGSGTDFTLKISRVEAEDVGVYYCFQVSHVPYTFGGGTKVEIKRTVAAPDIQMTQSPSSLSASVGDRVTITCRASQSISNNLNWYQQKPGKAPKLLIYYTSRFHSGVPSRFSGSGSGTDFTFTISSLQPEDIATYYCQQEHTLPYTFGQGTKLEIKR
notes: Outer domain is AB048 (PGE2), inner domain is AB020 (NGF); also called VD163H; VD3163L
For B7, in experiment [8], the Kd was determined as 0.122 nM, the koff amounted to 1.03e-06 s⁻¹ and the kon came to 8400 M⁻¹ s⁻¹.
